From patent US20150329626A1 (Eli Lilly, published 2015)

How the values were obtained:
[1] = biological target: T1, human Ang2 (human, UniProt O15123 19-496); assay: Biacore SPR, 25 C, compound captured on Protein A, Ang2 as analyte
T1 construct: also called hAng2; human angiopoietin-2
T1 sequence: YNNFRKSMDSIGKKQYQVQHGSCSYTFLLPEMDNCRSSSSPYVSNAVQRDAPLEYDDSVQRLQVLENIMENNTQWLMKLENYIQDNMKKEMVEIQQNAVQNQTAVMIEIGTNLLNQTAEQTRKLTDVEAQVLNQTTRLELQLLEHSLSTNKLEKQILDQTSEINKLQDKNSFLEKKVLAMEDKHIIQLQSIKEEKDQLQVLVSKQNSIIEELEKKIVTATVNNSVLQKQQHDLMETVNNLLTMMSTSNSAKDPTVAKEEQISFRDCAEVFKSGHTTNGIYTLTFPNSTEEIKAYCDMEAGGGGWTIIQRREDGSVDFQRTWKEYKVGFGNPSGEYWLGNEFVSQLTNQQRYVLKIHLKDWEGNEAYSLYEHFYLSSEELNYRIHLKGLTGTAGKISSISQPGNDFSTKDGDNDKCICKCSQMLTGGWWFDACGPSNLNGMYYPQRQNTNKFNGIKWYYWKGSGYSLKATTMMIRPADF

[2] = biological target: T2, human VEGFR2 extracellular domain (human, UniProt P35968 20-764); assay: Biacore SPR, 25 C, compound captured on Protein A, VEGFR2-ECD as analyte
T2 construct: also called hVEGFR2-ECD; human VEGFR2-ECD
T2 sequence (P35968 20-764): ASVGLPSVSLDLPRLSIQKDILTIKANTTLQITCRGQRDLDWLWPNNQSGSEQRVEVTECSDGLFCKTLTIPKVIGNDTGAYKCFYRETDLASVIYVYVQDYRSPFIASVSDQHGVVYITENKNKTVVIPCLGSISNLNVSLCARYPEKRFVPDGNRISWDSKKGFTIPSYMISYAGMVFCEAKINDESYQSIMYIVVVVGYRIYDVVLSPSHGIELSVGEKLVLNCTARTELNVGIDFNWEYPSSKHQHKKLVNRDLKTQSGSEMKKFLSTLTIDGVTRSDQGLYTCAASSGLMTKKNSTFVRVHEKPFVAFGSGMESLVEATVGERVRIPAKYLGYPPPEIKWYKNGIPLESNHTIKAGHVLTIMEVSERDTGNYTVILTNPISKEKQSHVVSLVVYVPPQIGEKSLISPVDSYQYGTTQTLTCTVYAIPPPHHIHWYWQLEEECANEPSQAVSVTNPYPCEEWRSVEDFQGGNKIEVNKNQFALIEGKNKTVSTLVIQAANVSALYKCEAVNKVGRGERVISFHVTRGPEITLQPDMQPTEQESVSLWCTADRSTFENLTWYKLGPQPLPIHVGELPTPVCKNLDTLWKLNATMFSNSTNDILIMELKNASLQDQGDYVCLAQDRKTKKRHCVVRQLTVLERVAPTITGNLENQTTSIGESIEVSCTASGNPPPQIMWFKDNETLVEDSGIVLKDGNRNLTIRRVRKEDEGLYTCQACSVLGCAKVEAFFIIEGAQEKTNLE

[3] = biological target: T3, cyno VEGFR2 extracellular domain (cynomolgus monkey, UniProt A0A2K5VE63 20-764); assay: Biacore SPR, 37 C, n = 3, compound captured on Protein A, VEGFR2-ECD as analyte
T3 construct: extracellular domain; also called cynomolgus monkey VEGFR2
T3 sequence (A0A2K5VE63 entry or part of it): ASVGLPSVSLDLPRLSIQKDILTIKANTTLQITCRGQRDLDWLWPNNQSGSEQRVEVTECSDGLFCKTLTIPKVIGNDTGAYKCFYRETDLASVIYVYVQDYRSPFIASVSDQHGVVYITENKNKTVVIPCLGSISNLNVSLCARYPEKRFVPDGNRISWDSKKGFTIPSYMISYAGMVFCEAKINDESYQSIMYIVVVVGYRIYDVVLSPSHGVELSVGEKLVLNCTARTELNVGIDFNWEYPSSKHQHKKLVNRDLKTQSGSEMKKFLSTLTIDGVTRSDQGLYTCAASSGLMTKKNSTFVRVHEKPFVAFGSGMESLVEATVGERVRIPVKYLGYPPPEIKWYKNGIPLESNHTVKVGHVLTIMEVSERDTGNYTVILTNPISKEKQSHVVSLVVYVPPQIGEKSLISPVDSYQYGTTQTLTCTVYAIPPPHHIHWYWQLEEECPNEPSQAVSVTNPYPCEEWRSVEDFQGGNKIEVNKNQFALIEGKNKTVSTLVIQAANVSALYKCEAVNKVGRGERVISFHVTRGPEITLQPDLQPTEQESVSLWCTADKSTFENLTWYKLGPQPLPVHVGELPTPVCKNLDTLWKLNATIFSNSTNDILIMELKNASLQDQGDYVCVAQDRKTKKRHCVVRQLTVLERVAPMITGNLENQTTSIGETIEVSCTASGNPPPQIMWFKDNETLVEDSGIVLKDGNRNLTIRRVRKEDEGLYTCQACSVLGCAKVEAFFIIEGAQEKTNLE

[4] = biological target: T4, dog VEGFR2 extracellular domain (dog, UniProt Q2XPT7 20-763); assay: as above
T4 construct: extracellular domain

[5] = biological target: T2, human VEGFR2 extracellular domain; assay: as above
[6] = biological target: T5, rabbit VEGFR2 extracellular domain (rabbit, UniProt G1SN50 20-764); assay: as above
T5 construct: extracellular domain
T5 sequence (G1SN50 entry or part of it): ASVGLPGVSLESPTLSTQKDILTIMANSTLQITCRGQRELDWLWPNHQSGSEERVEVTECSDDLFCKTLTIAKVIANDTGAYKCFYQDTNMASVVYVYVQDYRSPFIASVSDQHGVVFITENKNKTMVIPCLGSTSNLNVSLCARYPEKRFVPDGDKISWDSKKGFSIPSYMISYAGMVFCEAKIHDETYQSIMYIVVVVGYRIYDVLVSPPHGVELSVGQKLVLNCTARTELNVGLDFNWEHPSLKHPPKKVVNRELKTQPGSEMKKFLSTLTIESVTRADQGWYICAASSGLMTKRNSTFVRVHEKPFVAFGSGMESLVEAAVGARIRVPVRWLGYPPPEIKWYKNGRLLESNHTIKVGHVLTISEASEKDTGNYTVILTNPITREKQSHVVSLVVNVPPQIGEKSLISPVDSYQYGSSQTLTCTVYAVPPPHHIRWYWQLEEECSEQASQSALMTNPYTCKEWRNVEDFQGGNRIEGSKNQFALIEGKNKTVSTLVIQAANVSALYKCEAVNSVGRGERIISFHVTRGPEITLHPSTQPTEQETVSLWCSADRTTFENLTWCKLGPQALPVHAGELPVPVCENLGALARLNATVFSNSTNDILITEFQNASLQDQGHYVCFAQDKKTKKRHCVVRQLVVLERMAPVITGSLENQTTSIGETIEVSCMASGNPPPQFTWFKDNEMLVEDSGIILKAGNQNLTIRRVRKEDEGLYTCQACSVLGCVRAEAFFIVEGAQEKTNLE

[7] = biological target: T6, rabbit Ang2 (rabbit, UniProt G1T9B3 19-496); assay: Biacore SPR, 37 C, n = 3, compound captured on Protein A
T6 sequence: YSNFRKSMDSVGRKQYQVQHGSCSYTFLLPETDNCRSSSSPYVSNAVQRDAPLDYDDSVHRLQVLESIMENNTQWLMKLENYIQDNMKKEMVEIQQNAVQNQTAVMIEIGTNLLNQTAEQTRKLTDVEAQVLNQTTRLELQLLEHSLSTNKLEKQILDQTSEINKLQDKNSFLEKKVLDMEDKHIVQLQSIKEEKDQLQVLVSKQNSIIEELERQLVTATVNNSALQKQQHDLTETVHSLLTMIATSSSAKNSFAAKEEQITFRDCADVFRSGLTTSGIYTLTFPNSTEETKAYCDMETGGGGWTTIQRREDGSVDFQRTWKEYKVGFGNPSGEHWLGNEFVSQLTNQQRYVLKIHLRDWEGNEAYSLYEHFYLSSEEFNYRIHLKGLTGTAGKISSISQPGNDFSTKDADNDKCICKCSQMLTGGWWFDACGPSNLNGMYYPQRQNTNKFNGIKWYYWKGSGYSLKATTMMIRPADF

[8] = biological target: T7, dog Ang2 (dog, UniProt A0A8J8 19-495, limits assumed); assay: as above
T7 sequence (looked up): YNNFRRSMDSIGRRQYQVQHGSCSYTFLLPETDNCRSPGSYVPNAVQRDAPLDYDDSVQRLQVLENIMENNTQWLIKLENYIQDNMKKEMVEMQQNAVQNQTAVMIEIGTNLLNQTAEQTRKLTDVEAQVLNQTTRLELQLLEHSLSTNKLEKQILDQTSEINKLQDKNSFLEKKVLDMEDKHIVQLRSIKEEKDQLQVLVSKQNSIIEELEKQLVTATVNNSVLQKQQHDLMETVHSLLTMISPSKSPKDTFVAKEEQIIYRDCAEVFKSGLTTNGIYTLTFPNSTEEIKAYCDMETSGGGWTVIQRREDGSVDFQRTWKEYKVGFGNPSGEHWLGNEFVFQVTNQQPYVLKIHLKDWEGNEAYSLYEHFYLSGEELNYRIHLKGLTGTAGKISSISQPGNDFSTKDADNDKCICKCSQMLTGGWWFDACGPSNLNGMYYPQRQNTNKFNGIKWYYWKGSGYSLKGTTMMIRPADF

[9] = biological target: T8, mouse Ang2 (mouse, UniProt O35608 19-496, limits assumed); assay: as above
T8 sequence (looked up): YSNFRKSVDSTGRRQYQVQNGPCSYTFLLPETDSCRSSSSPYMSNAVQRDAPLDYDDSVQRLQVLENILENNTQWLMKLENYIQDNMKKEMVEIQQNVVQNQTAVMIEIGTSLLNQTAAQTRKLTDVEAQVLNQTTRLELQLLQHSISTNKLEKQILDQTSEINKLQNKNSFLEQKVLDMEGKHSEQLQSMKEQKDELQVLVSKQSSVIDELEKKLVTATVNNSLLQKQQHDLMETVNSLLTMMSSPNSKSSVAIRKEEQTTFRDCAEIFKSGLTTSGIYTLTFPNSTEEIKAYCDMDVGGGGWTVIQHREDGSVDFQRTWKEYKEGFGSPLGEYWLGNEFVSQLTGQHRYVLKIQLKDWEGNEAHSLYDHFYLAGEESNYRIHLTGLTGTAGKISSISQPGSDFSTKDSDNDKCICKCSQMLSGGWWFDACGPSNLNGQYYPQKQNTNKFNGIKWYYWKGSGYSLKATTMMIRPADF

[10] = biological target: T9, cyno Ang2 (cynomolgus monkey, UniProt A0A2K5VNX6 19-496); assay: as above
T9 construct: also called cynomolgus monkey Ang2
T9 sequence: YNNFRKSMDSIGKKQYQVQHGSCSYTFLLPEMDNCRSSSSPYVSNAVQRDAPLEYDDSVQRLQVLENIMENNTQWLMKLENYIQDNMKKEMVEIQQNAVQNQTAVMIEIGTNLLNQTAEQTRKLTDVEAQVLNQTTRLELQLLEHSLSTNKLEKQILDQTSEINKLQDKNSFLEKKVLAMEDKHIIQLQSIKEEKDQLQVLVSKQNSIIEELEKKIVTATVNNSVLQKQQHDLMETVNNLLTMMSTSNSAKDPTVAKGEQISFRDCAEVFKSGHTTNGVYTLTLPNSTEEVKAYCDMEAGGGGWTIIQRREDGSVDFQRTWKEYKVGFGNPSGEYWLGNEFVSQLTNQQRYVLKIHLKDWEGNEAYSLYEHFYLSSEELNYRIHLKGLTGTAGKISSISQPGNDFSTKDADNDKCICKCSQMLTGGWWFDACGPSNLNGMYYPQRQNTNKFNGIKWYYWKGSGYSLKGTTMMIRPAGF

[11] = biological target: T1, human Ang2; assay: as above
[12] = biological target: human VEGFR2 on cells (ECFC, HMVEC-d) (human, UniProt P35968 20-1356); assay: cell-based or functional assay
[13] = biological target: T1, human Ang2; assay: cell-based or functional assay
[14] = biological target: T1, human Ang2; assay: competition ELISA: blocking of biotinylated human Ang2 binding to plate-coated human Tie2-Fc

B1: Compound A (bispecific antibody, human IgG1, kappa)
heavy: not shown
light: DIQMTQSPSSVSASIGDRVTITCRASQGIDNWLGWYQQKPGKAPKLLIYDASNLDTGVPSRFSGSGSGTYFTLTISSLQAEDFAVYFCQQAKAFPPTFGGGTKVDIKRTVAAPSVFIFPPSDEQLKSGTASVVCLLNNFYPREAKVQWKVDNALQSGNSQESVTEQDSKDSTYSLSSTLTLSKADYEKHKVYACEVTHQGLSSPVTKSFNRGEC
Kd [1]: < 0.1 nM
koff [1]: < 1e-05 s⁻¹
kon [1]: 183000 M⁻¹ s⁻¹
Kd [2]: 0.711 nM
koff [2]: 4.8e-05 s⁻¹
kon [2]: 68000 M⁻¹ s⁻¹

B2: Compound B (bispecific antibody, human IgG4 S228P, kappa, F234A L235A)
heavy: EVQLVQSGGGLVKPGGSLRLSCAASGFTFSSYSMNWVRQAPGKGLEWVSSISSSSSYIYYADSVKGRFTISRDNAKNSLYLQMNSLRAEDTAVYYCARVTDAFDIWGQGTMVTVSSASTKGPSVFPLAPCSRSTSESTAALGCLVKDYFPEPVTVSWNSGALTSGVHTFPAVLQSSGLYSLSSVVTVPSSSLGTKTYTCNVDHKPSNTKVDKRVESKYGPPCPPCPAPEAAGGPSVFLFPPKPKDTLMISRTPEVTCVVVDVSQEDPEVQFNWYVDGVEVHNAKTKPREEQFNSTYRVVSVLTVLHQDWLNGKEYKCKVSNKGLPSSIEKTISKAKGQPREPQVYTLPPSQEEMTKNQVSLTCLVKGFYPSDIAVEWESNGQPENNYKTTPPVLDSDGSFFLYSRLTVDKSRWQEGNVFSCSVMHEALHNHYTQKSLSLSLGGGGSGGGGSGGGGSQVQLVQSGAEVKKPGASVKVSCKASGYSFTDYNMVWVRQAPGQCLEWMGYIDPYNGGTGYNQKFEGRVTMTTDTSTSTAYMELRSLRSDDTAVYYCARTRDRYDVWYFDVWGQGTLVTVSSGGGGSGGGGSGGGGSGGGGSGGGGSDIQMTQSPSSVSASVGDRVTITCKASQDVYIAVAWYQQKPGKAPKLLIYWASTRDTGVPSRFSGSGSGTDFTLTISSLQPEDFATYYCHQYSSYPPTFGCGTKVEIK
light: DIQMTQSPSSVSASIGDRVTITCRASQGIDNWLGWYQQKPGKAPKLLIYDASNLDTGVPSRFSGSGSGTYFTLTISSLQAEDFAVYFCQQAKAFPPTFGGGTKVDIKRTVAAPSVFIFPPSDEQLKSGTASVVCLLNNFYPREAKVQWKVDNALQSGNSQESVTEQDSKDSTYSLSSTLTLSKADYEKHKVYACEVTHQGLSSPVTKSFNRGEC
Kd [1]: < 0.1 nM
koff [1]: < 1e-05 s⁻¹
kon [1]: 285000 M⁻¹ s⁻¹
Kd [2]: 0.513 nM
koff [2]: 4.1e-05 s⁻¹
kon [2]: 81000 M⁻¹ s⁻¹

B3: Compound F (bispecific antibody, human IgG4 S228P, kappa, F234A L235A)
heavy: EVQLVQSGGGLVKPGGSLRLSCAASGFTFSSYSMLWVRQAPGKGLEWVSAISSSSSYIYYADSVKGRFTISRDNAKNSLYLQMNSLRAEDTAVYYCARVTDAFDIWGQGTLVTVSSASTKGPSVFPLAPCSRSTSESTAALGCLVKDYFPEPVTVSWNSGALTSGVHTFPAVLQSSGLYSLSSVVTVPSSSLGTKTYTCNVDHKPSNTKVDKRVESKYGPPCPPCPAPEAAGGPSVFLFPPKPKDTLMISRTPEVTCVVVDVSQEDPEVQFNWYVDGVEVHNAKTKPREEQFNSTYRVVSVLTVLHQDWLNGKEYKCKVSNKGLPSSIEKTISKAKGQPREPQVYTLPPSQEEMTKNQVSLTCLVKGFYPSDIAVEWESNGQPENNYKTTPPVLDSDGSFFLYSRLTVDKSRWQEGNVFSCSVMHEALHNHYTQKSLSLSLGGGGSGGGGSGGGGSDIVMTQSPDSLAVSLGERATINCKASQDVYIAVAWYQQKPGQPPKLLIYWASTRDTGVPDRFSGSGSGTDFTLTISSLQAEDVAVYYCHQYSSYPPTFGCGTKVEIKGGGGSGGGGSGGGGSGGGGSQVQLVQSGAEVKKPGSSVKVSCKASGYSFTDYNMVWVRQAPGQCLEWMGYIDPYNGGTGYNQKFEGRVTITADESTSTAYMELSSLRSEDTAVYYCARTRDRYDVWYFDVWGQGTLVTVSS
light: DIQMTQSPSSVSASVGDRVTITCRASRGIDNWLTWYQQKPGKAPKLLIYEASSLQSGVPSRFSGSGSGTDFTLTISSLQPEDFATYYCQQAKAFPPTFGGGTKVDIKRTVAAPSVFIFPPSDEQLKSGTASVVCLLNNFYPREAKVQWKVDNALQSGNSQESVTEQDSKDSTYSLSSTLTLSKADYEKHKVYACEVTHQGLSSPVTKSFNRGEC
notes: also called Cmpd F
Kd [3]: 3.3 nM
koff [3]: 0.00011 s⁻¹
kon [3]: 34000 M⁻¹ s⁻¹
Kd [4]: 37 nM
koff [4]: 0.0015 s⁻¹
kon [4]: 41000 M⁻¹ s⁻¹
Kd [5]: 4.6 nM
koff [5]: 0.00012 s⁻¹
kon [5]: 25000 M⁻¹ s⁻¹
Kd [6]: 6.1 nM
koff [6]: 0.00023 s⁻¹
kon [6]: 38000 M⁻¹ s⁻¹
Kd [7]: 0.42 nM
koff [7]: 0.00011 s⁻¹
kon [7]: 270000 M⁻¹ s⁻¹
Kd [8]: 0.24 nM
koff [8]: 9e-05 s⁻¹
kon [8]: 360000 M⁻¹ s⁻¹
Kd [9]: 0.23 nM
koff [9]: 8e-05 s⁻¹
kon [9]: 360000 M⁻¹ s⁻¹
Kd [10]: 0.3 nM
koff [10]: 0.00028 s⁻¹
kon [10]: 960000 M⁻¹ s⁻¹
Kd [11]: 0.1 nM
koff [11]: 7e-05 s⁻¹
kon [11]: 820000 M⁻¹ s⁻¹
inhibition of human VEGF165-induced proliferation of HMVEC-d (IC50) [12]: 19.2 nM
inhibition of human VEGF-induced cord formation in ADSC/ECFC co-culture (IC50) [12]: 6.04 nM
inhibition of human Ang2 induced phospho-Tie2 in CHO-Tie2 cells (IC50) [13]: 0.587 nM
Kd [1]: 0.673 nM
koff [1]: 0.000105 s⁻¹
kon [1]: 156000 M⁻¹ s⁻¹
Kd [2]: 0.721 nM
koff [2]: 1.8e-05 s⁻¹
kon [2]: 25000 M⁻¹ s⁻¹
IC50 [14]: 0.034 nM

B4: Compound E (bispecific antibody, human IgG4 S228P, kappa, F234A L235A)
heavy: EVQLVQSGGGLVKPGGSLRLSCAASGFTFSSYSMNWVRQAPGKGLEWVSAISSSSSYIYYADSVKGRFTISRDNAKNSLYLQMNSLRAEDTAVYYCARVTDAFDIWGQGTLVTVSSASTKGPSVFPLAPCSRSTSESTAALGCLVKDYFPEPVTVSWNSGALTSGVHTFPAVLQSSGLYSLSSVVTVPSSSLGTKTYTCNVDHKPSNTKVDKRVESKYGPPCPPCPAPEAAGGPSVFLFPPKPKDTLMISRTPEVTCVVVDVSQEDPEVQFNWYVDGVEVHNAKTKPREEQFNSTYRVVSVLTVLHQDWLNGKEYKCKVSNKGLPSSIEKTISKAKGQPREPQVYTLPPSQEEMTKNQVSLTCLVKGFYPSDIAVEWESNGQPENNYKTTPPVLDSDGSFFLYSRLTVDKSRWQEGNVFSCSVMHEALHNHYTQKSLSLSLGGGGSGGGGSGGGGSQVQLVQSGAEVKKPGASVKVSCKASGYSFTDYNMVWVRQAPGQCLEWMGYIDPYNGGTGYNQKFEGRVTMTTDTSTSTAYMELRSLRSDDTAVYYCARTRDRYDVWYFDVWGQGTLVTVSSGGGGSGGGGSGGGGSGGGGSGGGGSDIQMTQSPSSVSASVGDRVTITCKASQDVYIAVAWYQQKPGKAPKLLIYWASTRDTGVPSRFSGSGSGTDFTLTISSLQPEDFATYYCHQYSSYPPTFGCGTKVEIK
light: DIQMTQSPSSVSASVGDRVTITCRASQGIDNWLTWYQQKPGKAPKLLIVEASSLQSGVPSRFSGSGSGTDFTLTISSLQPEDFATYYCQQAKAFPPTFGGGTKVDIKRTVAAPSVFIFPPSDEQLKSGTASVVCLLNNFYPREAKVQWKVDNALQSGNSQESVTEQDSKDSTYSLSSTLTLSKADYEKHKVYACEVTHQGLSSPVTKSFNRGEC
Kd [1]: 0.407 nM
koff [1]: 9.7e-05 s⁻¹
kon [1]: 239000 M⁻¹ s⁻¹
Kd [2]: 1.11 nM
koff [2]: 3.5e-05 s⁻¹
kon [2]: 32000 M⁻¹ s⁻¹

B5: Compound D (bispecific antibody, human IgG4 S228P, kappa, F234A L235A)
heavy: not shown
light: DIQMTQSPSSVSASVGDRVTITCRASQGIDNWLTWYQQKPGKAPKLLIVEASSLQSGVPSRFSGSGSGTDFTLTISSLQPEDFATYYCQQAKRFPPTFGGGTKVDIKRTVAAPSVFIFPPSDEQLKSGTASVVCLLNNFYPREAKVQWKVDNALQSGNSQESVTEQDSKDSTYSLSSTLTLSKADYEKHKVYACEVTHQGLSSPVTKSFNRGEC
Kd [1]: 0.489 nM
koff [1]: 8.6e-05 s⁻¹
kon [1]: 175000 M⁻¹ s⁻¹
Kd [2]: 0.86 nM
koff [2]: 2.9e-05 s⁻¹
kon [2]: 34000 M⁻¹ s⁻¹

B6: Compound C (bispecific antibody, human IgG4 S228P, kappa, F234A L235A)
heavy: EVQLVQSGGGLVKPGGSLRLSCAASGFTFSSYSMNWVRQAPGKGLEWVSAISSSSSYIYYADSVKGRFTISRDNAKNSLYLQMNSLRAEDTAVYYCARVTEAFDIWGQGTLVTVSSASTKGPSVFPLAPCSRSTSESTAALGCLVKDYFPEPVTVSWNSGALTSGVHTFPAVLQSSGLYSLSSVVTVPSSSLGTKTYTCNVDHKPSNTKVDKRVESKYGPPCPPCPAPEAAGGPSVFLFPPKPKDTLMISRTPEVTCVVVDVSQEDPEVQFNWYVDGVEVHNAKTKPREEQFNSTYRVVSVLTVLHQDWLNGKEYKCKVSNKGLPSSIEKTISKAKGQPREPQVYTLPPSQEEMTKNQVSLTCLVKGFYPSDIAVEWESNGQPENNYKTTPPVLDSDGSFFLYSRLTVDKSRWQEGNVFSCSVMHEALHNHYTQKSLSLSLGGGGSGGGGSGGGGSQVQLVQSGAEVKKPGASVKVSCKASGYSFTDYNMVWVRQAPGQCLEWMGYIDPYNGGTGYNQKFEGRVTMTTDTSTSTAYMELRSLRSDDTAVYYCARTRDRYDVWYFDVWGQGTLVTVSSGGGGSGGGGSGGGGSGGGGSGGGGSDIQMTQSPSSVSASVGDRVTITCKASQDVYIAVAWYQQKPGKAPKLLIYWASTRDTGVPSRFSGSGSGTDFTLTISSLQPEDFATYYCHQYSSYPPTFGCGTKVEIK
light: DIQMTQSPSSVSASVGDRVTITCRASRGIDNWLTWYQQKPGKAPKLLIYEASSLQSGVPSRFSGSGSGTDFTLTISSLQPEDFATYYCQQAKAFPPTFGGGTKVDIKRTVAAPSVFIFPPSDEQLKSGTASVVCLLNNFYPREAKVQWKVDNALQSGNSQESVTEQDSKDSTYSLSSTLTLSKADYEKHKVYACEVTHQGLSSPVTKSFNRGEC
Kd [1]: 0.462 nM
koff [1]: 0.000105 s⁻¹
kon [1]: 226000 M⁻¹ s⁻¹
Kd [2]: 0.528 nM
koff [2]: 2e-05 s⁻¹
kon [2]: 38000 M⁻¹ s⁻¹
